# Assay results from the supplement of paper PMC10567573.
# B1: FAM189A2 (parent)
# chain: CALNALTTTVCLVAAALRYLQIFA
# Variants of: B1
# Assay: protein stability index of a GFP-peptide fusion (GPS, HEK-293T) (PSI 1-6); higher = more stable
# Details: c terminus: a fixed tail appended
# 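Also: lentivirally expressed fusions sorted by FACS into six bins by GFP to DsRed ratio, PSI derived from sequencing read proportions per bin multiplied by bin number.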
row,Variant,protein stability index
1,CALNALTTTVCLVAAYLRYLQIFA [A16Y],2.27
2,CALNALTTTVCLVAAALRYRQIFA [L20R],3.02
3,CALNALTTTVCLVAAALRYVQIFA [L20V],1.72
4,CALNALTTTVCLVAAALRYKQIFA [L20K],3.6
5,CALNALTTTVCLVAAALRYQQIFA [L20Q],3.06
6,CALNALTTTVCLVAAALRYMQIFA [L20M],3.29
7,CALNALTTTVCLVAAALRYTQIFA [L20T],3.88
8,CALNALTTTVCLVAAALRYNQIFA [L20N],2.53
9,CALNALTTTVCLVAAALRYFQIFA [L20F],2.75
10,CALNALTTTVCLVAAALRYIQIFA [L20I],2.76
11,CALNALTTTVCLVAAALRYGQIFA [L20G],2.41
12,CALNALTTTVCLVAAALRYLQIGA [F23G],4.67
13,CALNALTTTVCLVAAALRYLQIIA [F23I],3.76
14,CALNALTTTVCLVAAALRYLQIHA [F23H],4.92
15,CALNALTTTVCLVAAALRYLQIDA [F23D],2.47
16,CALNALTTTVCLVAAALRYLQIEA [F23E],3.61
17,CALNALTTTVCLVAAALRYLQICA [F23C],3.26
18,CALNALTTTVCLVAAALRYLQAFA [I22A],1.99
19,CALNALTTTVCLVAAALRYLQRFA [I22R],2.16
20,CALNALTTTVCLVAAALRYLQHFA [I22H],2.75
21,CALNALTTTVCLVAAALRYLQLFA [I22L],2.83
22,CALNALTTTVCLVAAALRYLQGFA [I22G],3.11
23,CALNALTTTVCLVAAALRYLQNFA [I22N],2.58
24,CALNALTTTVCLVAAALRYLQFFA [I22F],2.44

row,Variant,protein stability index
1,CALNALTTTVCLVAAALRYLQEFA [I22E],3.28
2,CALNALTTTVCLVAAALRYLQYFA [I22Y],2.44
3,CALNALTTTVCLVAAALRYLQTFA [I22T],2.33
4,CALNALTTTVCLVAAALRYLQWFA [I22W],3.83
5,CALNALTTTVCLVAAALRYLQMFA [I22M],3.76
6,CALNALTTTVCLVAAALRYLQQFA [I22Q],2.9
7,CALNALTTTVCLVAAALRYLQVFA [I22V],2.72
8,CALNALTTTVCLVAAALRYLQSFA [I22S],3.43
9,CALNALTTTVCLVAAALRYLQKFA [I22K],2.14
10,CALNALTTTVCLVAAALRYLQPFA [I22P],4.03
11,CALNALTTTVCLVAAALRRLQIFA [Y19R],2.4
12,CALNALTTTVCLVAAALRLLQIFA [Y19L],3.58
13,CALNALTTTVCLVAAALRNLQIFA [Y19N],3.25
14,CALNALTTTVCLVAAALRKLQIFA [Y19K],2.19
15,CALNALTTTVCLVAAALRPLQIFA [Y19P],2.86
16,CALNALTTTVCLVAAALRWLQIFA [Y19W],3.75
17,CALNALTTTVCLVAAALRHLQIFA [Y19H],1.98
18,CALNALTTTVCLVAAALRSLQIFA [Y19S],3.45
19,CALNALTTTVCLVAAALRELQIFA [Y19E],3.73
20,CALNALTTTVCLVAAALRCLQIFA [Y19C],3.41
21,CALNALTTTVCLVAAALRVLQIFA [Y19V],1.9
22,CALNALTTTVCLVAAALRILQIFA [Y19I],3.74
23,CALNALTTTVCLVAAALRALQIFA [Y19A],3.25
24,CALNALTTTVCLVAAALRFLQIFA [Y19F],3.29

row,Variant,protein stability index
1,CALNALTTTVCLVAAALRYLAIFA [Q21A],3.09
2,CALNALTTTVCLVAAALRYLRIFA [Q21R],1.72
3,CALNALTTTVCLVAAALRYLCIFA [Q21C],2.75
4,CALNALTTTVCLVAAALRYLEIFA [Q21E],3.35
5,CALNALTTTVCLVAAALRYLKIFA [Q21K],2.07
6,CALNALTTTVCLVAAALRYLWIFA [Q21W],2.74
7,CALNALTTTVCLVAAALRYLFIFA [Q21F],2.15
8,CALNALTTTVCLVAAALRYLSIFA [Q21S],1.64
9,CALNALTTTVCLVAAALRYLTIFA [Q21T],3.12
10,CALNALTTTVCLVAAALRYLLIFA [Q21L],3.19
11,CALNALTTTVCLVAAALRYLNIFA [Q21N],2.02
12,CALNALTTTVCLVAAALRYLVIFA [Q21V],2.12
13,CALNALTTTVCLVAAALRYLGIFA [Q21G],2.9
14,CALNALTTTVCLVAAALRYLYIFA [Q21Y],3.35
15,CALNALTTTVCLVAAALRYLIIFA [Q21I],2.65
16,CALNALTTTVCLVAAACRYLQIFA [L17C],3.24
17,CALNALTTTVCLVAAAQRYLQIFA [L17Q],2.57
18,CALNALTTTVCLVAAAKRYLQIFA [L17K],3.29
19,CALNALTTTVCLVAAAARYLQIFA [L17A],1.47
20,CALNALTTTVCLVAAAVRYLQIFA [L17V],1.38
21,CALNALTTTVCLVAAAMRYLQIFA [L17M],4.11
22,CALNALTTTVCLVAAAERYLQIFA [L17E],3.03
23,CALNALTTTVCLVAAANRYLQIFA [L17N],3.87
24,CALNALTTTVCLVAAAHRYLQIFA [L17H],2.72

row,Variant,protein stability index
1,CALNALTTTVCLVAAAYRYLQIFA [L17Y],2.25
2,CALNALTTTVCLVAAAFRYLQIFA [L17F],3.04
3,CALNALTTTVCLVAAAIRYLQIFA [L17I],4.04
4,CALNALTTTVCLVAAAPRYLQIFA [L17P],2.91
5,CALNALTTTVCLVAAAWRYLQIFA [L17W],3.15
6,CALNALTTTVCLVAAATRYLQIFA [L17T],2.14
7,CALNALTTTVCLVAAAGRYLQIFA [L17G],3.97
8,CALNALTTTVCLVAAALVYLQIFA [R18V],3.16
9,CALNALTTTVCLVAAALNYLQIFA [R18N],3.9
10,CALNALTTTVCLVAAALIYLQIFA [R18I],3.84
11,CALNALTTTVCLVAAALWYLQIFA [R18W],2.99
12,CALNALTTTVCLVAAALCYLQIFA [R18C],3.91
13,CALNALTTTVCLVAAALYYLQIFA [R18Y],3.89
14,CALNALTTTVCLVAAALPYLQIFA [R18P],1.82
15,CALNALTTTVCLVAAALTYLQIFA [R18T],2.38
16,CALNALTTTVCLVAAALQYLQIFA [R18Q],2.72
17,CALNALTTTVCLVAAALMYLQIFA [R18M],1.38
18,CALNALTTTVCLVAAALGYLQIFA [R18G],3.25
19,CALNALTTTVCLVAAALLYLQIFA [R18L],2.98
20,CALNALTTTVCLVAAALDYLQIFA [R18D],3.02
21,CALNALTTTVCLVAAALEYLQIFA [R18E],3.6
22,CALNALTTTVCLVAAALKYLQIFA [R18K],3.85
